Laboratory results taken from PMC9482650, “Quantitative fragmentomics allow affinity mapping of interactomes” (Nature Communications, 2022).

T1: APBA1_1, Q02410
T1 sequence (Q02410 651-752, limits assumed, looked up): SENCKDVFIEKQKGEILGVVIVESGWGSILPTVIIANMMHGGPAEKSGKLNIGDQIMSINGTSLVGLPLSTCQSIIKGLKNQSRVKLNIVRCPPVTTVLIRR

T2: GRIP1_2, Q9Y3R0
T2 sequence (Q9Y3R0 145-248, limits assumed, looked up): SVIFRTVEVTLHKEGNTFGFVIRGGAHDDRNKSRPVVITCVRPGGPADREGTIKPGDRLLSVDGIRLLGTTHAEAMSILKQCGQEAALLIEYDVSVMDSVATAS

T3: LNX2_3, Q8N448
T3 sequence (Q8N448 463-564, limits assumed, looked up): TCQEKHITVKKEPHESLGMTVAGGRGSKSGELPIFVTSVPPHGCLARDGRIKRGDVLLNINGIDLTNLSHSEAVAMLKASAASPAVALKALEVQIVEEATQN

T4: MPDZ_12, O75970
T4 sequence (O75970 1857-1958, limits assumed, looked up): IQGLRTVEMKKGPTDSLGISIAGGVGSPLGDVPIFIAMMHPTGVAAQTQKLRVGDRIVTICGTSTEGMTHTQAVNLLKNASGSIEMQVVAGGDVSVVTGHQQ

T5: MPDZ_5, O75970
T5 sequence (O75970 695-796, limits assumed, looked up): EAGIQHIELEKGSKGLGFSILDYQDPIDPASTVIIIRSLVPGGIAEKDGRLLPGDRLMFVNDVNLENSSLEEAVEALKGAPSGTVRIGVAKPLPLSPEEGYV

T6: PDZD2_2, O15018
T6 sequence (O15018 329-429, limits assumed, looked up): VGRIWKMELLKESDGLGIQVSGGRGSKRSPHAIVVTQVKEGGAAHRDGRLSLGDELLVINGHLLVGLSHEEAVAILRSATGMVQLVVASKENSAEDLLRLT

T7: PTPN13_1, Q12923
T7 sequence (Q12923 1088-1188, limits assumed, looked up): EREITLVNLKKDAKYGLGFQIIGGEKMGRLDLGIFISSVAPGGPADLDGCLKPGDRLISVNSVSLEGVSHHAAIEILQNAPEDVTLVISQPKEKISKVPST

T8: RAPGEF6, Q8TEU7
T8 sequence (Q8TEU7 525-625, limits assumed, looked up): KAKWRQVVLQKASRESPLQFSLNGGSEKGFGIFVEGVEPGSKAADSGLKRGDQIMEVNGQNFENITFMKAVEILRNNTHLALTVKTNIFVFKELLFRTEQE

T9: RHPN1, Q8TCX5
T9 sequence (Q8TCX5 508-602, limits assumed, looked up): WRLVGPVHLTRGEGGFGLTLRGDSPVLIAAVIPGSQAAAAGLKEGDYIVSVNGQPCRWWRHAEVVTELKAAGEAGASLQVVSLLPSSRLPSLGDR

T10: TIAM2, Q8IVF5
T10 sequence (Q8IVF5 885-986, limits assumed, looked up): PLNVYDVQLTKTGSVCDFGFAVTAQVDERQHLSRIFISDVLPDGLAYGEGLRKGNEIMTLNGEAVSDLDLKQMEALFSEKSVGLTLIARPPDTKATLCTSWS

B1: PRLHR, P49683 (peptide)
chain: GQNMTVSVVI
B2: SLC15A2, Q16348 (peptide)
chain: IKLETKKTKL
B3: GUCY1A2, P33402 (peptide)
chain: GTMFLRETSL

What follows are binders tested against T1, APBA1_1, Q02410 (assay: holdup assay). Conditions: plain residues with an end cap or a label only (N-terminal biotin on a linker: ado-ado).
Set-up: key: below the threshold = too weak to quantify, mostly under pKd 3.1 to 4

| pKd | Binder |
| --- | --- |
| below the threshold | B1 |
| below the threshold | B2 |
| below the threshold | B3 |

What follows are binders tested against DLG1_1, Q12959 (assay: holdup assay). Conditions: plain residues with an end cap or a label only (N-terminal biotin on a linker: ado-ado).
Set-up: key: below the threshold = too weak to quantify, mostly under pKd 3.1 to 4

| pKd | Binder |
| --- | --- |
| below the threshold | B1 |
| below the threshold | B2 |
| 4.23 | B3 |

These binders were tested against DLG2_3, Q15700 (assay: holdup assay). Conditions: plain residues with an end cap or a label only (N-terminal biotin on a linker: ado-ado).
Set-up: key: below the threshold = too weak to quantify, mostly under pKd 3.1 to 4

| pKd | Binder |
| --- | --- |
| 3.74 | B1 |
| below the threshold | B2 |
| 4.79 | B3 |

Each binder was assayed against DLG4_1, P78352 (assay: holdup assay). Conditions: plain residues with an end cap or a label only (N-terminal biotin on a linker: ado-ado).
Set-up: key: below the threshold = too weak to quantify, mostly under pKd 3.1 to 4

Chain of DLG4_1, P78352 (P78352 62-152): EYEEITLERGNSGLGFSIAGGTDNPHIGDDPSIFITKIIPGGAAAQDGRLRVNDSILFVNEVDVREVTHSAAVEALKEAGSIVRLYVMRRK

| pKd | Binder |
| --- | --- |
| below the threshold | B1 |
| 3.69 | B2 |
| 4.03 | B3 |

These binders were tested against DLG4_3, P78352 (assay: holdup assay). Conditions: plain residues with an end cap or a label only (N-terminal biotin on a linker: ado-ado).
Set-up: key: below the threshold = too weak to quantify, mostly under pKd 3.1 to 4

Chain of DLG4_3, P78352 (P78352 306-403): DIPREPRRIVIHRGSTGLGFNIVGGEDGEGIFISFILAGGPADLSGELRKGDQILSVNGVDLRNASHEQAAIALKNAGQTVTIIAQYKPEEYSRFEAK

| pKd | Binder |
| --- | --- |
| below the threshold | B1 |
| below the threshold | B2 |
| 4.86 | B3 |

What follows are binders tested against FRMPD2_1, Q68DX3 (assay: holdup assay). Conditions: plain residues with an end cap or a label only (N-terminal biotin on a linker: ado-ado).
Set-up: key: below the threshold = too weak to quantify, mostly under pKd 3.1 to 4

Chain of FRMPD2_1, Q68DX3 (Q68DX3 770-861): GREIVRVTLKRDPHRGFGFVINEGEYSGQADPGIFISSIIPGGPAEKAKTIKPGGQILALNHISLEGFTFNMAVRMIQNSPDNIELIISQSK

| pKd | Binder |
| --- | --- |
| below the threshold | B1 |
| below the threshold | B2 |
| below the threshold | B3 |

Each binder was assayed against FRMPD3, Q5JV73 (assay: holdup assay). Conditions: plain residues with an end cap or a label only (N-terminal biotin on a linker: ado-ado).
Set-up: key: below the threshold = too weak to quantify, mostly under pKd 3.1 to 4

Chain of FRMPD3, Q5JV73 (Q5JV73 12-100): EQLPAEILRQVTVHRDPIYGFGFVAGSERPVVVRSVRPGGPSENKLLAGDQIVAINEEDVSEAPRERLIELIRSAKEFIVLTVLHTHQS

| pKd | Binder |
| --- | --- |
| below the threshold | B1 |
| below the threshold | B2 |
| below the threshold | B3 |

Each binder was assayed against T2, GRIP1_2, Q9Y3R0 (assay: holdup assay). Conditions: plain residues with an end cap or a label only (N-terminal biotin on a linker: ado-ado).
Set-up: key: below the threshold = too weak to quantify, mostly under pKd 3.1 to 4

| pKd | Binder |
| --- | --- |
| below the threshold | B1 |
| below the threshold | B2 |
| below the threshold | B3 |

What follows are binders tested against GRIP2_3, Q9C0E4 (assay: holdup assay). Conditions: plain residues with an end cap or a label only (N-terminal biotin on a linker: ado-ado).
Set-up: key: below the threshold = too weak to quantify, mostly under pKd 3.1 to 4

Chain of GRIP2_3, Q9C0E4 (Q9C0E4 238-339): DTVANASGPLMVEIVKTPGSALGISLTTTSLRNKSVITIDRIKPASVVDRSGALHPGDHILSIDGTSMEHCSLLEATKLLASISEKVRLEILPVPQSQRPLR

| pKd | Binder |
| --- | --- |
| below the threshold | B1 |
| below the threshold | B2 |
| below the threshold | B3 |

These binders were tested against GRIP2_7, Q9C0E4 (assay: holdup assay). Conditions: plain residues with an end cap or a label only (N-terminal biotin on a linker: ado-ado).
Set-up: key: below the threshold = too weak to quantify, mostly under pKd 3.1 to 4

Chain of GRIP2_7, Q9C0E4 (Q9C0E4 934-1023): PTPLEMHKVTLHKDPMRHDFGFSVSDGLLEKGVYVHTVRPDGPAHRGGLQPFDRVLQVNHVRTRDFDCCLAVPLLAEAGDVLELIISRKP

| pKd | Binder |
| --- | --- |
| below the threshold | B1 |
| below the threshold | B2 |
| 3.84 | B3 |

Each binder was assayed against HTRA2, O43464 (assay: holdup assay). Conditions: plain residues with an end cap or a label only (N-terminal biotin on a linker: ado-ado).
Set-up: key: below the threshold = too weak to quantify, mostly under pKd 3.1 to 4

Chain of HTRA2, O43464 (O43464 355-458): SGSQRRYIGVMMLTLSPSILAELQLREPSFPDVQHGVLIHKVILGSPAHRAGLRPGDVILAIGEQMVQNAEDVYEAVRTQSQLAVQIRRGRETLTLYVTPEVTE

| pKd | Binder |
| --- | --- |
| below the threshold | B1 |
| 3.52 | B2 |
| below the threshold | B3 |

Each binder was assayed against Inadl_1, Q8NI35 (assay: holdup assay). Conditions: plain residues with an end cap or a label only (N-terminal biotin on a linker: ado-ado).
Set-up: key: below the threshold = too weak to quantify, mostly under pKd 3.1 to 4

Chain of Inadl_1, Q8NI35 (Q8NI35 113-229): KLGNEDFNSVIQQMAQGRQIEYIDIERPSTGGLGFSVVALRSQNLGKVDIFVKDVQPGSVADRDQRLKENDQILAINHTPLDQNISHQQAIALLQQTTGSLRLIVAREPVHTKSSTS

| pKd | Binder |
| --- | --- |
| below the threshold | B1 |
| below the threshold | B2 |
| below the threshold | B3 |

What follows are binders tested against LAP2, Q96RT1 (assay: holdup assay). Conditions: plain residues with an end cap or a label only (N-terminal biotin on a linker: ado-ado).
Set-up: key: below the threshold = too weak to quantify, mostly under pKd 3.1 to 4

Chain of LAP2, Q96RT1 (Q96RT1 other isoform, or with tags, fused parts or gaps): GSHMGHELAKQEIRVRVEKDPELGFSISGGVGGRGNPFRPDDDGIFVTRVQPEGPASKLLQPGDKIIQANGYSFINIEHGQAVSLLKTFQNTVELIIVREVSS

| pKd | Binder |
| --- | --- |
| below the threshold | B1 |
| below the threshold | B2 |
| 3.85 | B3 |

Each binder was assayed against LNX1_2, Q8TBB1 (assay: holdup assay). Conditions: plain residues with an end cap or a label only (N-terminal biotin on a linker: ado-ado).
Set-up: key: below the threshold = too weak to quantify, mostly under pKd 3.1 to 4

Chain of LNX1_2, Q8TBB1 (Q8TBB1 371-470): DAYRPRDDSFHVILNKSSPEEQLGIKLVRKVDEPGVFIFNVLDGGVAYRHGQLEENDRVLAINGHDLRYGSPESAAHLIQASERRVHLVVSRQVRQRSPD

| pKd | Binder |
| --- | --- |
| 3.54 | B1 |
| below the threshold | B2 |
| below the threshold | B3 |

What follows are binders tested against T3, LNX2_3, Q8N448 (assay: holdup assay). Conditions: plain residues with an end cap or a label only (N-terminal biotin on a linker: ado-ado).
Set-up: key: below the threshold = too weak to quantify, mostly under pKd 3.1 to 4

| pKd | Binder |
| --- | --- |
| 3.61 | B1 |
| below the threshold | B2 |
| below the threshold | B3 |

Each binder was assayed against MAGI2_2, Q86UL8 (assay: holdup assay). Conditions: plain residues with an end cap or a label only (N-terminal biotin on a linker: ado-ado).
Set-up: key: below the threshold = too weak to quantify, mostly under pKd 3.1 to 4

Chain of MAGI2_2, Q86UL8 (Q86UL8 410-522): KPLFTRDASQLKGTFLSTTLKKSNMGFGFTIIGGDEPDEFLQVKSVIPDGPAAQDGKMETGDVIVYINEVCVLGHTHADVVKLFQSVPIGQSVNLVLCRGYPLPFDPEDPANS

| pKd | Binder |
| --- | --- |
| below the threshold | B1 |
| 3.47 | B2 |
| 4.29 | B3 |

Each binder was assayed against MAST2, Q6P0Q8 (assay: holdup assay). Conditions: plain residues with an end cap or a label only (N-terminal biotin on a linker: ado-ado).
Set-up: key: below the threshold = too weak to quantify, mostly under pKd 3.1 to 4

Chain of MAST2, Q6P0Q8 (Q6P0Q8 1099-1202): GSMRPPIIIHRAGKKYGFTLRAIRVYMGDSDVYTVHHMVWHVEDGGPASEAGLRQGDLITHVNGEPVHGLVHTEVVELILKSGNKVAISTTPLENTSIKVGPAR

| pKd | Binder |
| --- | --- |
| below the threshold | B1 |
| 5.56 | B2 |
| 5.68 | B3 |

These binders were tested against T4, MPDZ_12, O75970 (assay: holdup assay). Conditions: plain residues with an end cap or a label only (N-terminal biotin on a linker: ado-ado).
Set-up: key: below the threshold = too weak to quantify, mostly under pKd 3.1 to 4

| pKd | Binder |
| --- | --- |
| below the threshold | B1 |
| below the threshold | B2 |
| below the threshold | B3 |

The binders below were run against T5, MPDZ_5, O75970 (assay: holdup assay). Conditions: plain residues with an end cap or a label only (N-terminal biotin on a linker: ado-ado).
Set-up: key: below the threshold = too weak to quantify, mostly under pKd 3.1 to 4

| pKd | Binder |
| --- | --- |
| below the threshold | B1 |
| below the threshold | B2 |
| below the threshold | B3 |

Each binder was assayed against NHERF4_1, Q86UT5-2 (assay: holdup assay). Conditions: plain residues with an end cap or a label only (N-terminal biotin on a linker: ado-ado).
Set-up: key: below the threshold = too weak to quantify, mostly under pKd 3.1 to 4

Chain of NHERF4_1, Q86UT5-2 (Q86UT5 other isoform, or with tags, fused parts or gaps): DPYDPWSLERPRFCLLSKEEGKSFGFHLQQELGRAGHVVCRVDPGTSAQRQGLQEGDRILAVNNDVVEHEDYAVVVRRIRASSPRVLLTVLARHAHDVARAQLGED

| pKd | Binder |
| --- | --- |
| 3.64 | B1 |
| 4.27 | B2 |
| 4.54 | B3 |

What follows are binders tested against NOS1, P29475 (assay: holdup assay). Conditions: plain residues with an end cap or a label only (N-terminal biotin on a linker: ado-ado).
Set-up: key: below the threshold = too weak to quantify, mostly under pKd 3.1 to 4

Chain of NOS1, P29475 (P29475 9-101): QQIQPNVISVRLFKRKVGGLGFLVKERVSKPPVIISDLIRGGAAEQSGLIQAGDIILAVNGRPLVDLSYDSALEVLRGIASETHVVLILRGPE

| pKd | Binder |
| --- | --- |
| 3.82 | B1 |
| 3.61 | B2 |
| 3.84 | B3 |

What follows are binders tested against PARD3_3, Q8TEW0 (assay: holdup assay). Conditions: plain residues with an end cap or a label only (N-terminal biotin on a linker: ado-ado).
Set-up: key: below the threshold = too weak to quantify, mostly under pKd 3.1 to 4

Chain of PARD3_3, Q8TEW0 (Q8TEW0 582-685): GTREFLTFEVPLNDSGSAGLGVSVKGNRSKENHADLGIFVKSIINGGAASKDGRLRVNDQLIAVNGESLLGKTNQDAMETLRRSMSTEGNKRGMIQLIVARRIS

| pKd | Binder |
| --- | --- |
| 4.1 | B1 |
| below the threshold | B2 |
| below the threshold | B3 |

These binders were tested against T6, PDZD2_2, O15018 (assay: holdup assay). Conditions: plain residues with an end cap or a label only (N-terminal biotin on a linker: ado-ado).
Set-up: key: below the threshold = too weak to quantify, mostly under pKd 3.1 to 4

| pKd | Binder |
| --- | --- |
| below the threshold | B1 |
| below the threshold | B2 |
| below the threshold | B3 |

The binders below were run against T7, PTPN13_1, Q12923 (assay: holdup assay). Conditions: plain residues with an end cap or a label only (N-terminal biotin on a linker: ado-ado).
Set-up: key: below the threshold = too weak to quantify, mostly under pKd 3.1 to 4

| pKd | Binder |
| --- | --- |
| below the threshold | B1 |
| 3.56 | B2 |
| below the threshold | B3 |

These binders were tested against T8, RAPGEF6, Q8TEU7 (assay: holdup assay). Conditions: plain residues with an end cap or a label only (N-terminal biotin on a linker: ado-ado).
Set-up: key: below the threshold = too weak to quantify, mostly under pKd 3.1 to 4

| pKd | Binder |
| --- | --- |
| below the threshold | B1 |
| 3.48 | B2 |
| below the threshold | B3 |

Each binder was assayed against T9, RHPN1, Q8TCX5 (assay: holdup assay). Conditions: plain residues with an end cap or a label only (N-terminal biotin on a linker: ado-ado).
Set-up: key: below the threshold = too weak to quantify, mostly under pKd 3.1 to 4

| pKd | Binder |
| --- | --- |
| below the threshold | B1 |
| 3.76 | B2 |
| 4.8 | B3 |

What follows are binders tested against SNX27, Q96L92 (assay: holdup assay). Conditions: plain residues with an end cap or a label only (N-terminal biotin on a linker: ado-ado).
Set-up: key: below the threshold = too weak to quantify, mostly under pKd 3.1 to 4

| pKd | Binder |
| --- | --- |
| 4.34 | B1 |
| 3.94 | B2 |
| 5.72 | B3 |

These binders were tested against T10, TIAM2, Q8IVF5 (assay: holdup assay). Conditions: plain residues with an end cap or a label only (N-terminal biotin on a linker: ado-ado).
Set-up: key: below the threshold = too weak to quantify, mostly under pKd 3.1 to 4

| pKd | Binder |
| --- | --- |
| 4.2 | B1 |
| below the threshold | B2 |
| 3.66 | B3 |
